Assay results taken from patent US20260132182A1 (published 2026).
Starred links: 1 amine or outer side, 2 acyl side, 3 side chain; linkers in the order of their positions; H or OH if unused. Non-standard residues stand in square brackets, D forms with d. Groups on a side chain read outwards from the residue. *: point of attachment. C20 diacid = O=C(O)CCCCCCCCCCCCCCCCCCC(=O)*; C18 diacid = O=C(O)CCCCCCCCCCCCCCCCC(=O)*; C16 diacid = O=C(O)CCCCCCCCCCCCCCC(=O)*; γGlu = O=C(O)[C@H](CCC(=O)[*:2])N[*:1]; εLys = N[C@@H](CCCCN[*:1])C(=O)[*:2]; Trx = NC[C@H]1CC[C@H](C(=O)O)CC1; AEEA = NCCOCCOCC(=O)O; Aib = CC(C)(N)C(=O)O

T1: human amylin-3 (a) receptor (human, UniProt P30988 25-474; O60896 24-148)
T1 sequence (looked up) 1: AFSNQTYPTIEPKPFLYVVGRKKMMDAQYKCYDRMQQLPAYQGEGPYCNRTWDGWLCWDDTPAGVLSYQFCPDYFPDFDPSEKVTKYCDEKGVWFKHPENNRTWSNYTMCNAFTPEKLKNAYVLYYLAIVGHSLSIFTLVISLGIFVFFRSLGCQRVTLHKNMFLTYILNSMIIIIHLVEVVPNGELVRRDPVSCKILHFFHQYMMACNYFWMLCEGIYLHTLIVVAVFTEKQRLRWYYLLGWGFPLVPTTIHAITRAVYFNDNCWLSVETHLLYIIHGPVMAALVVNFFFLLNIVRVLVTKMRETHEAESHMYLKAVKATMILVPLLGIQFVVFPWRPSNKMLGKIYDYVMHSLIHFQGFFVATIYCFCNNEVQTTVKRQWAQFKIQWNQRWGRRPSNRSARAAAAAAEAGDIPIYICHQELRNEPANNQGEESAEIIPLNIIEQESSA
T1 sequence (looked up) 2: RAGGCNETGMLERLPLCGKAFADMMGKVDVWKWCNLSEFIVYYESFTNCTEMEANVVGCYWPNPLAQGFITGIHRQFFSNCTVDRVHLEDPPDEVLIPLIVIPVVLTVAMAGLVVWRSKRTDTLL


How the values were obtained:
[1] = biological target: T1, human amylin-3 (a) receptor; assay: cell-based or functional assay
[2] = biological target: human GLP-1 receptor (human, UniProt P43220 24-463); assay: cell-based or functional assay

Binder | Human AmyR3 potency [EC50 (pM)] [1] | Human GLP-1R potency [EC50 (pM)] [2]
Compound 0294 (peptide) peptide: H[Aib]EGTFTSDVSSYLEK([AEEA-AEEA-γGlu-C16 diacid])QAAREFIAWLVRGRGGGGGASELSTAALGRLSK([AEEA-AEEA-γGlu-C16 diacid])ELHELATLPRTETGSGSP-NH2 | 34.3 pM | 13.7 pM
Compound 0414 (peptide) peptide: HAEGTFTSDVSSYLEEK([AEEA-AEEA-γGlu-Trx-C20 diacid])AAREFIEWLVRGRGEASELSTAALGRLSAELHELATLPRTETGSGSP-NH2 | 17.7 pM | 11.2 pM
Compound 0295 (peptide) peptide: H[Aib]EGTFTSDVSSYLEEK([AEEA-AEEA-γGlu-C16 diacid])AAREFIAWLVRGRGGGGGASELSTAALGRLSK([AEEA-AEEA-γGlu-C16 diacid])ELHELATLPRTETGSGSP-NH2 | 32.7 pM | 4.8 pM
Compound 0281 (peptide) peptide: H[Aib]EGTFTSDVSSYLEEQAAREFIAWLVRGK([AEEA-AEEA-γGlu-C16 diacid])GGGGGEASELSTAALGRLSAELHELK([AEEA-AEEA-γGlu-C16 diacid])TLPRTETGSGSP-NH2 | 114 pM | 35.2 pM
Compound 0299 (peptide) peptide: H[Aib]EGTFTSDVSSYLEEK([AEEA-AEEA-γGlu-C16 diacid])AAREFIAWLVRGRGGGGGEASELSTAALGRLSAELHK([AEEA-AEEA-γGlu-C16 diacid])LATLPRTETGSGSP-NH2 | 11.5 pM | 6 pM
Compound 0434 (peptide) peptide: HWEGTFTSDVSSYLEEK([εLys-AEEA-AEEA-γGlu-Trx-C20 diacid])AAREFIEWLVRGRGEASELSTAALGRLSAELHELATLPRTETGSGSP-NH2 | 13.9 pM | 11.8 pM
Compound 0433 (peptide) peptide: HWEGTFTSDK([εLys-AEEA-AEEA-γGlu-Trx-C20 diacid])SSYLEEQAAREFIEWLVRGRGEASELSTAALGRLSAELHELATLPRTETGSGSP-NH2 | 12.9 pM | 30.7 pM
Compound 0284 (peptide) peptide: H[Aib]EGTFTSDVSSYLEEQAAREFIAWLVRGK([AEEA-AEEA-γGlu-C16 diacid])GGGGGEASELSTAALGRLSAELHELATLK([AEEA-AEEA-γGlu-C16 diacid])RTETGSGSP-NH2 | 32.8 pM | 41.7 pM
Compound 0272 (peptide) peptide: HWEGTFTSDK([AEEA-AEEA-γGlu-Trx-C20 diacid])SSYLEEQAAREFIEWLVRGRGEASELSTAALGRLSAELHELATLPRTETGSGSP-NH2 | 11.3 pM | 9.2 pM
Compound 0415 (peptide) peptide: H[Aib]EGTFTSDVSSYLEEK([AEEA-AEEA-γGlu-Trx-C20 diacid])AAREFIEWLVRGRGEASELSTAALGRLSAELHELATLPRTETGSGSP-NH2 | 16.1 pM | 10.3 pM
Compound 0436 (not fully specified (residue 20)) peptide: H[Aib]EGTFTSDVSSYLEEQAAKEFIEWLVRGRGEASELSTAALGRLSAELHELATLPRTETGSGSP-NH2 | 12.3 pM | 15.2 pM
Compound 0431 (peptide) peptide: HAEGTFTSDK([AEEA-AEEA-γGlu-Trx-C20 diacid])SSYLEEQAAREFIEWLVRGRGEASELSTAALGRLSAELHELATLPRTETGSGSP-NH2 | 11.9 pM | 10.9 pM
Compound 0396 (peptide) peptide: H[Aib]EGTFTSDVSSYLEEK([AEEA-AEEA-γGlu-C16 diacid])AAREFIAWLVRGRGGGGGEASELSTAALGRLSAELHELK([AEEA-AEEA-γGlu-C16 diacid])TLPRTETGSGSP-NH2 | 32.8 pM | 4.8 pM
Compound 0292 (peptide) peptide: H[Aib]EGTFTSDK([AEEA-AEEA-γGlu-C16 diacid])SSYLEEQAAREFIAWLVRGRGGGGGASELSTAALGRLSK([AEEA-AEEA-γGlu-C16 diacid])ELHELATLPRTETGSGSP-NH2 | 33.8 pM | 12 pM
Compound 0411 (peptide) peptide: H[Aib]EGTFTSDVSSYLEEK([AEEA-AEEA-γGlu-C16 diacid])AAREFIAWLVRGRGGGGGEASELSTAALGRLSAELHELATLPRTETGK([AEEA-AEEA-γGlu-C16 diacid])GSP-NH2 | 45.9 pM | 3.5 pM
Compound 0273 (peptide) peptide: HWEGTFTSDK([AEEA-AEEA-γGlu-C18 diacid])SSYLEEQAAREFIEWLVRGRGEASELSTAALGRLSAELHELATLPRTETGSGSP-NH2 | 18 pM | 24.9 pM
Compound 0397 (peptide) peptide: H[Aib]EGTFTSDVSSYLEEK([AEEA-AEEA-γGlu-C16 diacid])AAREFIAWLVRGRGGGGGEASELSTAALGRLSAELHELATLK([AEEA-AEEA-γGlu-C16 diacid])RTETGSGSP-NH2 | 18.5 pM | 3.8 pM
Compound 0296 (peptide) peptide: H[Aib]EGTFTSDVSSYLEEQAARK([AEEA-AEEA-γGlu-C16 diacid])FIAWLVRGRGGGGGASELSTAALGRLSK([AEEA-AEEA-γGlu-C16 diacid])ELHELATLPRTETGSGSP-NH2 | 29.9 pM | 4 pM
Compound 0437 (peptide) peptide: HWEGTFTSDVSSYLEEQAARK([εLys-AEEA-AEEA-γGlu-Trx-C20 diacid])FIEWLVRGRGEASELSTAALGRLSAELHELATLPRTETGSGSP-NH2 | 11.8 pM | 12 pM
Compound 0416 (peptide) peptide: HAEGTFTSK([AEEA-AEEA-γGlu-Trx-C20 diacid])VSSYLEEQAAREFIEWLVRGRGEASELSTAALGRLSAELHELATLPRTETGSGSP-NH2 | 18.3 pM | 105 pM
Compound 0297 (peptide) peptide: H[Aib]EGTFTSDVSSYLEEQAAREFIAWLVRK([AEEA-AEEA-γGlu-C16 diacid])RGGGGGASELSTAALGRLSK([AEEA-AEEA-γGlu-C16 diacid])ELHELATLPRTETGSGSP-NH2 | 46 pM | 30.2 pM
Compound 0285 (peptide) peptide: H[Aib]EGTFTSDVSSYLEEQAAREFIAWLVRGK([AEEA-AEEA-γGlu-C16 diacid])GGGGGEASELSTAALGRLSAELHELATLPRTETGK([AEEA-AEEA-γGlu-C16 diacid])GSP-NH2 | 78.9 pM | 19 pM
Compound 0045 (peptide) peptide: H[Aib]EGTFTSDVSSYLEGQAAKEFIAWLVRGRK([εLys-AEEA-AEEA-γGlu-C18 diacid])GGEASELSTAALGRLSAELHELATLPRTETGSGSP-NH2 | 25.9 pM | 19.4 pM
Compound 0044 (peptide) peptide: H[Aib]EGTFTSDVSSYLEGQAAK([εLys-AEEA-AEEA-γGlu-C18 diacid])EFIAWLVRGRGGGEASELSTAALGRLSAELHELATLPRTETGSGSP-NH2 | 9.1 pM | 16 pM
Compound 0417 (peptide) peptide: H[Aib]EGTFTSK([AEEA-AEEA-γGlu-Trx-C20 diacid])VSSYLEEQAAREFIEWLVRGRGEASELSTAALGRLSAELHELATLPRTETGSGSP-NH2 | 21 pM | 97.8 pM
Compound 0280 (peptide) peptide: H[Aib]EGTFTSDVSSYLEEQAAREFIAWLVRGK([AEEA-AEEA-γGlu-C16 diacid])GGGGGEASELSTAALGRLSAELHK([AEEA-AEEA-γGlu-C16 diacid])LATLPRTETGSGSP-NH2 | 18 pM | 34.3 pM
Compound 0435 (peptide) peptide: HWEGTFTSDVSSYLEEQAAK([εLys-AEEA-AEEA-γGlu-Trx-C20 diacid])EFIEWLVRGRGEASELSTAALGRLSAELHELATLPRTETGSGSP-NH2 | 22.3 pM | 92.4 pM
